Tested on: T1, O=[N+]([O-])c1ccc(O[C@@H]2OC[C@@H](O[C@@H]3OC[C@@H](O)[C@H](O)[C@H]3O)[C@H](O)[C@H]2O)cc1
T1 construct: mature form Leu20-Ser216 (197 residues), signal peptide removed, N-terminal His6 tag (pRham N-His), E. coli 10G, synthetic codon-optimised gene, monomer, 22,340 Da
Test: purified protein
Format: biochemical, Rhizopus arrhizus
Settings: 20 mM sodium acetate, pH 5.0, 37 °C, free enzyme without OsXIP

Sequence of RXyn2 (Rhizopus arrhizus) (chain, as listed by the source): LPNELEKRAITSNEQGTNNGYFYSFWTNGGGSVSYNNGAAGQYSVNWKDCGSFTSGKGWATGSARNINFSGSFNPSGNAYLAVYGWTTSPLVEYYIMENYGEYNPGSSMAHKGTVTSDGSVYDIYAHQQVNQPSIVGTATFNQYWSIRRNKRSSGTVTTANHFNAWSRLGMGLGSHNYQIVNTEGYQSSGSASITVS

**Q.** For RXyn2 (Rhizopus arrhizus), which Km is on record?
**A.** The Km was 5.05 ± 0.29 mM.

From article PMC12329526, “Molecular arrangements that accompany binding of rice xylanase inhibitor protein OsXIP and the Rhizopus oryzae GH11 xylanase RXyn2” (The Journal of Biological Chemistry, 2025)
